Data published in patent publication US20260317420 (published 2026).

B1: Zolbetuximab (SI-64C8) (antibody, V domains shown)
VH: QVQLQQPGAELVRPGASVKLSCKASGYTFTSYWINWVKQRPGQGLEWIGNIYPSDSYTNYNQKFKDKATLTVDKSSSTAYMQLSSPTSEDSAVYYCTRSWRGNSFDYWGQGTTLTVSS
VL: DIVMTQSPSSLTVTAGEKVTMSCKSSQSLLNSGNQKNYLTWYQQKPGQPPKLLIYWASTRESGVPDRFTGSGSGTDFTLTISSVQAEDLAVYYCQNDYSYPFTFGSGTKLEIKR
B2: 5208H10 (SI-64CH5) (antibody, V domains shown)
VH: QSVKESEGGLFKPTDTLTLTCTVSGFSLSTYAMSWVRQAPGNGLEWIGIIDAVGRTYYASWAKSRSTITRNTNLNTVTLKMTSLTAADTATYFCARWWDLWGQGTLVTVSS
VL: AQVLTQTASSVSAAVGGTVTINCQSSQSVYDSNDLTWYQQKPGQSPKLLIYLASTLASGVPSRFKGSGSGTQFTLTISDLECDDSATYYCAAHYNSDIYTFGGGTEVEVK
B3: 5103F3 BSM (SI-64M1) (antibody, V domains shown)
VH: QVQLQESGGRLIKPGEPLRLSCKTSGIDLSGFAMGWVRQAPGKGLEYIGFIDSGGGAFYATWARGRFTISRTSTNTVYLQMNSLTAEDTAVYYCARHGGNTYYYAMDPWGPGTLVTVSS
VL: ALRMTQSPSSLAATTGQRVTITCQASQSISNYLAWYQQKPGQPPKLLIYSASTLASGVPSRFKGSGSGTQFTLTISCVQCEDFATYYCQQVYSVTNIDNAFGGGTRVEIK

Columns and labels:
human Claudin18.2 [1] = target: T1, human Claudin18.2 (human, UniProt P56856); assay: BLI
human Claudin18.2 [2] = target: T1, human Claudin18.2; assay: BLI, bivalent
human Claudin18.1 = target: T2, human Claudin18.1 (human, UniProt P56856); assay: ELISA
T2 chain: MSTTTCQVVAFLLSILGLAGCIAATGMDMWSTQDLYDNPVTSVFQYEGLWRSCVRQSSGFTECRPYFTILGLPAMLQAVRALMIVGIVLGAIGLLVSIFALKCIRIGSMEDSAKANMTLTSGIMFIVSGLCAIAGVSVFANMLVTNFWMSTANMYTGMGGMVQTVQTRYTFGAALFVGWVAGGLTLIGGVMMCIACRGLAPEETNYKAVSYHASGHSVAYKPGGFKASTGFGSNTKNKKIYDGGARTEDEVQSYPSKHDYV

mouse Claudin18.1 = target: T3, mouse Claudin18.1 (mouse, UniProt P56857); assay: FACS
T3 chain: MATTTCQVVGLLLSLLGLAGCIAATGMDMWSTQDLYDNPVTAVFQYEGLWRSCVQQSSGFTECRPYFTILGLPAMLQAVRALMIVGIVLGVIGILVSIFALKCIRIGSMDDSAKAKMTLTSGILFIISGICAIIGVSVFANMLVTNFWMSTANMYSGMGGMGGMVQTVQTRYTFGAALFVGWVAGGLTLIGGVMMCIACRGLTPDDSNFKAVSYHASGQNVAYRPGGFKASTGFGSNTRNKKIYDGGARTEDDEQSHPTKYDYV

mouse Claudin18.2 = target: T4, mouse Claudin18.2 (mouse, UniProt P56857); assay: BLI
T4 chain: T3 chain

rat Claudin18.1 = target: T5, rat Claudin18.1 (rat, UniProt Q5I0E5); assay: FACS
T5 chain: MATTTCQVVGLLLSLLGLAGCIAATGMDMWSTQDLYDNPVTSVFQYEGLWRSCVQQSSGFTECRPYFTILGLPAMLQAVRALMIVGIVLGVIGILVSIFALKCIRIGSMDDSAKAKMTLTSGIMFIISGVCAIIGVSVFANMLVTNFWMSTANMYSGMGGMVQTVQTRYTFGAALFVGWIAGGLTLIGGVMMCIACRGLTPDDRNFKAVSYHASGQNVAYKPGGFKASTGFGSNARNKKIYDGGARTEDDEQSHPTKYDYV

Binder | Kd (human Claudin18.2 [1]) | Kd (human Claudin18.2 [2]) | binding result (human Claudin18.1) | binding result (mouse Claudin18.1) | Kd (mouse Claudin18.2) | binding result (rat Claudin18.1)
B1 | 1.59 nM | 5.31 nM |  |  |  | 
B2 | 3 nM |  |  |  |  | 
B3 | 1.45 nM | 0.216 nM | no binding | no binding | 1.73 nM | no binding
